Data on one molecule can be found in US20100015155A1 (Eli Lilly, published 2010).

One may read the Kd as the constant that tells how readily two partners part at equilibrium. A higher Kd goes with weaker binding.

Test [1] addresses T1, human soluble Abeta (1-40) (human, UniProt P05067 672-711).
T1 construct: domain: Abeta (1-40); The numbers 1-40 count on the Aβ peptide, not on the APP precursor entry; also called Human Abeta (1-40); human abeta
As to the kind of experiment: KinExA equilibrium, antigen on sepharose beads, soluble Abeta (1-40) titrated, 37 C; 1A1 Fab, not PEGylated. The method, then: (§1) KinExA analysis is used as an orthogonal approach to measure binding affinity through equilibrium binding analysis due to the slow off-rate of the antigen Fab complex. A KinExA 3000 instrument (Sapidyne Inst. Inc.) is used to measure binding kinetics. Briefly, the antigen is covalently coupled to sepharose beads and the binding of free Fab/Fab-PEG to the beads is detected on the instrument. […] After the incubation, free Fab/Fab-PEG in each equilibrated sample is determined on the KinExA 3000 according to the manufacturer's instructions. Kd values are determined by n-Curve Analysis using KinExA 3000 software.
(Kinetic exclusion samples the free partner from a solution-phase mixture.)

Test [2] deals with T1, human soluble Abeta (1-40). As to the kind of experiment: KinExA equilibrium, ratio of KD values. The protocol:
as §1

T1 sequence (P05067 672-711 limits assumed): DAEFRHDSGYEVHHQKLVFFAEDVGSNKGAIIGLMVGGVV

B1: 1A1-Fab (humanized antibody Fab fragment, LCVR of SEQ ID NO: 1 and HCVR of SEQ ID NO: 2) (Fab, V domains shown)
VH: EVQLVESGGGLVKPGGSLRLSCAASGYTFSRYSMSWVRQAPGKGLEWVGQINIRGCNTYYPDTVKGRFTISRDDSKNTLYLQMNSLKTEDTAVYYCTTGDFWGQGTLVTVSS
VL: DIVMTQTPLSLSVTPGQPASISCSSSQSLIYSDGNAYLHWYLQKPGQSPQLLIYKVSNRFSGVPDRFSGSGSGTDFTLKISRVEAEDVGVYYCTQSTHSPWTFGGGTKVEIK
notes: Fab without PEG; CH1 and CL are not; The light chain is human kappa, since it is captured or detected with anti-human kappa; also called humanized 1A1-Fab; 1A1 N56C Fab
In test [1], B1 registered a Kd of 0.019 nM. Besides, the “fold affinity against murine 266 Fab” value in test [2] is about 10 fold.
